Substitutions are numbered along the chain they refer to. Each block holds one binder with its values, some of them ahead of it.
Biological target: 메소텔린 (MIA PaCa2-MSLN 세포에 과발현) (UniProt Q13421)
Test: flow cytometry on MIA PaCa2-MSLN cells; 1 μg scFv, anti-6xHis tag detection

percent of cells bound: > 68%
B1: MS501 scFv 단백질 (scFv)
scFv: EVQLLESGGGLVQPGGSLRLSCAASGFTFSNYAMSWVRQAPGKGLEWVSGIYPDSGSTYYADSVKGRFTISRDNSKNTLYLQMNSLRAEDTAVYYCARNIYTFDYWGQGTLVTVSSGGGGSGGGGSGGGGSQSVLTQPPSASGTPGQRVTISCSGSSSNIGSNAVSWYQQLPGTAPKLLIYYNNQRPSGVPDRFSGSKSGTSASLAISGLRSEDEADYYCGSWDSSLSGYVFGGGTKLTVLG

percent of cells bound: > 68%
B2: MS503 scFv 단백질 (scFv)
scFv: B1 scFv with G50S, D54G, S55D, R98K, I100A, Y101F, N184S, Q185H, S222T

percent of cells bound: > 68%
B3: C2G4 scFv 단백질 (scFv)
scFv: EVQLLESGGGLVQPGGSLRLSCAASGFTFSNYAMSWVRQAPGKGLEWVSGIPPDSGSKYYADSVRGRFTVSRDNSKNTLYLQMNSLRAEDTAVYYCAKNMLSFDYWGQGTLVTVSSGGGGSGGGGSGGGGSQSVLTQPPSASGTPGQRVTISCTGSSSNIGSNAVSWYQQLPGTAPKLLIYYNSKRPSGVPDRFSGSKSGTSASLAISGLRSEDEADYYCGSWDPSLNGYVFGGGTKVTVLG

Reference: patent KR20200090598A
